The results in this text go back to the RNAGym collection of RNA variant scans (doi:10.1073/pnas.2313332121).

The chains are these.
B1: TPR 5TU (parent)
chain: GGAUCUUCUCGAUCUAACAAAAAAGACAAAUCUGCCACAAAGCUUGAGAGCAUCUUCGGAUGCAGAGGCGGCAGCCUUCGGUGGCGCGAUAGCGCCAACGUUCUCAACUAUGACACGCAAAACGCGUGCUCCGUUGAAUGGAGUUUAUCAUG

Fewer inactive variants are shown than the library holds.

This data set covers variants of B1. The data set is described as follows: polymerase ribozyme fitness, log enrichment relative to wild type (log ratio); higher = more active; in vitro selection for triplet polymerase activity. The method, boiled down: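 In triplicate, a single round of in vitro selection was run on each mutant library, PCR-built and transcribed, covering one subunit of a heterodimeric triplet polymerase ribozyme. Frozen incubation at −7 °C followed annealing with a biotinylated primer, partner subunit and triplets, and extended constructs were then gel-excised, streptavidin-captured and taken through RT-PCR. Fitness is the logarithm of genotype enrichment over wild-type enrichment, from inverse-variance-weighted replicate averages of Illumina-sequenced inputs and outputs. […] only genotypes with ≥10 input reads and ≥1 read per output were kept.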
Take A3G U15C C93G U146G: the “polymerase ribozyme fitness (log ratio)” value is -2.23.
The same measure for U4A U55A A64C: at most -4.2; for C5A U9C C10G A26U U90G A137G A142U: at most -4.2.
The same measure for C5G G25C C54A C75G G83U: at most -4.2.
For C5A G11A G84A C95A C103U C116U, the “polymerase ribozyme fitness (log ratio)” value is -1.5.
In the case of C5G C14G A49G, the “polymerase ribozyme fitness (log ratio)” value is -3.17.
Take A3U U55A: the “polymerase ribozyme fitness (log ratio)” value was -0.84.
The same measure for U4G G58A: 0.794; for U4A C27U G83C G117A A122G U146A: -3.14.
Consider A3C U7C A47C U55A G59A A73U U82G U146C, for which the “polymerase ribozyme fitness (log ratio)” value was at most -4.2.
Then C5G U15A U45G U82C G92A A150U, with at most -4.2; and C5A C27A C87A U109A G126A, with at most -4.2.
In the case of U4C C10A U15G G62C A64U G80A C93A C116A U127G C131U G141U U145A, the “polymerase ribozyme fitness (log ratio)” value was at most -4.2.
As to A3U C93U C118U, the “polymerase ribozyme fitness (log ratio)” value was -1.3.
On to C5A A23G U33G A66G G83A C87U A113G G124A U127C, for which the “polymerase ribozyme fitness (log ratio)” value is -3.78.
As for U4C C87G A107G, the “polymerase ribozyme fitness (log ratio)” value was at most -4.2.
Then U4A A22C G48U C75G G84A, with at most -4.2; and U4C A52G G58U, with -0.303; and A3G C75A C93A A97U A98U U101G C118U, with at most -4.2.
In the case of U4C A12U A21G G59A C85G G124U, the “polymerase ribozyme fitness (log ratio)” value is -2.83.
On to A3U A16C A20C A47U U53G G86A A110G, for which the “polymerase ribozyme fitness (log ratio)” value is at most -4.2.
With A3G A24U U55A C85A, the “polymerase ribozyme fitness (log ratio)” value is -2.17.
As to C5A C27U U55G G83A G92U U148A, the “polymerase ribozyme fitness (log ratio)” value was at most -4.2.
The same measure for U4G G84U A107U G140A: at most -4.2; for A3U A17U U55G G84A C96A G133U G152C: at most -4.2.
Then U4A C10U A26U U31G A39G C57A C85A U90G A113C, with at most -4.2; and A3G A17U A47U U55G, with -0.403.
The same measure for A3G C18U A49C C57U C85G G143U: at most -4.2; for A3G C5G G48C A52C C54G A66C C76G: at most -4.2.
As to C5G C54A G58C A73G C79A C87U C116A A138G, the “polymerase ribozyme fitness (log ratio)” value was at most -4.2.
Take A3G C14G A16C U82C C129G C131A: the “polymerase ribozyme fitness (log ratio)” value was at most -4.2.
Then A3G A23C A24U C51U U55G G84A C85A G92U, with at most -4.2.
Consider A3U A39G A52G U144C, for which the “polymerase ribozyme fitness (log ratio)” value was -3.97.
As for A3G C18U G34U C95U A115C, the “polymerase ribozyme fitness (log ratio)” value is -4.09.
The same measure for U4A G92A G141A: -3.96; for C5G C32U G84U: -3.82; for A3C U56A C69A C93U G126A U139G: -2.53.
The same measure for A3U U82G: -0.249; for A3G A16C A26C U45A G59C G86C U130G U145G: at most -4.2.
With C5G C38G G68C U135A G141A, the “polymerase ribozyme fitness (log ratio)” value was at most -4.2.
For the variant A3C U4G A16G U33G C43U G92U A106G, the “polymerase ribozyme fitness (log ratio)” value was at most -4.2.
With C5G U13A, the “polymerase ribozyme fitness (log ratio)” value is -1.14.
The same measure for A3G U33G U55A A66C C108U: at most -4.2.
As to U4G A41U G50C C85G, the “polymerase ribozyme fitness (log ratio)” value was at most -4.2.
In the case of A3G U33C G58C C116G U139A G141U U146C, the “polymerase ribozyme fitness (log ratio)” value was at most -4.2.
Then C5A U6G U82C C95G, with -2.28; and U4G A73C G92C, with -4.15; and C5G C10G G92A C123U A138C G143A, with at most -4.2.
The same measure for C5A C93U C105U C149G: -3.96.
As to C5G A19U A37U U45A U61A C87U, the “polymerase ribozyme fitness (log ratio)” value was at most -4.2.
Then C5A A21G A41C A64U C85A C96U A110U G117U, with at most -4.2.
Then A3G A20G G48C G50C G67C G68A G83A U139C, with at most -4.2; and C5G A49G U61A C85G, with at most -4.2.
As for C5G A39G C51U A106G, the “polymerase ribozyme fitness (log ratio)” value is at most -4.2.
Then C5A A21C C35U G74C G128U U139G, with at most -4.2; and C5A U9C G42A A52G A66C G74A U82A A89U C123A C129A G133U, with at most -4.2; and C5A U7G C32G A115U U146C, with at most -4.2.
The same measure for A3U A37U U56A A97U: -3.82; for U4A C38U A41U G59A A137U: -4.07.
Then A3U G92A G136C, with -4; and A3U C57U C87U A113C A119G, with -3.73.
As for A3U U7C A52C C95U C99U, the “polymerase ribozyme fitness (log ratio)” value was at most -4.2.
For the variant C5A C54U A73G A119G G136A, the “polymerase ribozyme fitness (log ratio)” value is -0.371.
Then A3G U15G G25U A41C G83A U90A A98U C99G A113G, with at most -4.2; and C5G C93A, with -2.55.
Then C5A A20C C96U, with -0.294.
Take U4A C93A: the “polymerase ribozyme fitness (log ratio)” value is -1.38.
As for C5A G58A G86U, the “polymerase ribozyme fitness (log ratio)” value was -1.52.
Then A3G C51A, with -1.26.
As for U4C G25U U61G G86U C93U G133C, the “polymerase ribozyme fitness (log ratio)” value was at most -4.2.
The same measure for U4G U6G A22C A73G G83C: at most -4.2; for A3G A24C U53A U61A C85G: at most -4.2.
In the case of U4C C14U G42A G84A C105G, the “polymerase ribozyme fitness (log ratio)” value is at most -4.2.
The same measure for A3U G133U U135G: at most -4.2; for A3C U7A C10U U53A G92C A138G: at most -4.2.
The same measure for C5G A41C U55A G58A A60G: -1.54; for A3G C27U G50A C51U C85A G140U: at most -4.2.
For C5G A30C G81U A138C U144C, the “polymerase ribozyme fitness (log ratio)” value is at most -4.2.
Turning to A3G U9G C36A G67A G68C A73G U135G, the “polymerase ribozyme fitness (log ratio)” value is at most -4.2.
With U4A C54A C95A A138C, the “polymerase ribozyme fitness (log ratio)” value is at most -4.2.
Consider C5A C57G C75U G86A A91C, for which the “polymerase ribozyme fitness (log ratio)” value was -4.01.
The same measure for A3C U15G A24G G117A U151A: at most -4.2; for U4A A12U G84A A89G: -0.965.
Then U4A A60C G71U G92C C108G G117A G124U A137C, with at most -4.2.
